In patent US5420243:
Ends that are not written are not given here.

Legend:
[1] = target: L6 rat muscle myoblast TGF-β receptor (rat); test: competition against 125I-TGF-β2 on L6 rat muscle myoblast TGF-β receptor (Example 5)
[2] = target: L6 rat muscle myoblast TGF-β receptor (rat); test: competition against 125I-TGF-β2 on L6 rat muscle myoblasts; called apparent dissociation constant of approximately 3 µM in paragraph 85
[3] = target: L6 rat muscle myoblast TGF-β receptor (rat); test: competition against 125I-TGF-β2 on L6 rat muscle myoblasts

TGF-β2 (from UniProt P61812) (ligand)
ED50 [1]: 0.06 nM

CLRPLYIDFKRDLGWKWIHEPKGYNANFCAGA (also: dimer linked by a single disulfide bond, Cys pairing not settled) [TGF-β2 16-47 dimer]
ED50 [2]: 3 µM

CLRPLYIDFKRDLGWKWIHEPKGYNANFCAGA [TGF-β2 16-47 monomer]
ED50 [3]: 30 µM

CLRPLYIDFKRDLGWK (also: disulfide-linked dimer) [TGF-β2 16-31 dimer]
ED50 [3]: 30 µM
